Source: patent publication US20260137759A1

How the values were obtained:
[1] = target: IL2Rβ and common γ chain (on 32Dβ cells); assay: cell-based or functional assay
TGFβ1 (R&D systems) = TGFβ1 (R&D systems) (UniProt P01137); assay: cell-based or functional assay
UniProt P01137, sequence (P01137 279-390 limits assumed): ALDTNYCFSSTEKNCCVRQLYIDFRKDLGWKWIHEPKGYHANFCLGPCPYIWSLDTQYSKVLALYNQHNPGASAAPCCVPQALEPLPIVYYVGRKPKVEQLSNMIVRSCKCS

Substance	EC50, 32Dβ cell proliferation (WST1, absorbance 450 nM) [1] [nM]	IC50, inhibition of TGFβ1 activity in HEK-Blue TGFβ cells (QUANTI-Blue OD 620-655 nM) (TGFβ1 (R&D systems)) [nM]
recombinant IL-15 (from UniProt P40933 49-162) (ligand)	0.0106	
TGFR-Fc (R&D Systems) (from UniProt P37173 24-159) (Fc fusion)		0.461
